{"source": "paper PMC11374688", "key": {"[1]": {"target": "Ub(T): S. pombe Ub residues 1–74 extended with Gly–PSAN (Ub-PSAN), as cyanomethyldithioacetal in the complexes (S. pombe) (UniProt P0CG72)", "sequence (P0CG72 1-74, one chain of several)": "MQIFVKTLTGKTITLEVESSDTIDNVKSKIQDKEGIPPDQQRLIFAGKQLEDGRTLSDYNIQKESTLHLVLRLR"}, "[2]": {"target": "S. pombe Ubc4(C21S/C107S) (S. pombe) (UniProt P46595)", "sequence (P46595 whole entry C21S/C107S)": "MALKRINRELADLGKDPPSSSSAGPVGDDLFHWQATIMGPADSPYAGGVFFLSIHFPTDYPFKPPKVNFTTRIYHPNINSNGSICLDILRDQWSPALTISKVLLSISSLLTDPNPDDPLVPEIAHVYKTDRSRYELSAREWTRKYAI"}}}
{"binder": "S. pombe Pub2^HECT (295–671) F640A (domain or fragment) DEYQRKIAYMYDRPEMAVNDAQLQLKVSRATTFEDAYDIISKLSVSDMKKKLLIRFRNEDGLDYGGVSREFFYILSHAIFNPGYSLFEYATDDNYGLQISPLSSVNPDFRSYFRFVGRVMGLAIYHRRYLDVQFVLPFYKRILQKPLCLEDVKDVDEVYYESLKWIKNNDVDESLCLNFSVEENRFGESVTVDLIPNGRNIAVNNQNKMNYLKALTEHKLVTSTEEQFNALKGGLNELIPDSVLQIFNENELDTLLNGKRDIDVQDWKRFTDYRSYTETDDIVIWFWELLSEWSPEKKAKLLQFATGTSRLPLSGFKDMHGSDGPRKFTIEKVGHISQLPKAHTCANRLDIPPYNSKEELEQKLTIAIQETAGFGTE", "values": [{"measurement": "E2~Ub(T)-to-E3^HECT pulse–chase transthiolation, fold loss of activity against wild type", "setting": "[1]", "value": 30, "unit": "fold"}, {"measurement": "E2~Ub(T)-to-E3^HECT pulse–chase transthiolation, fold loss of activity against wild type", "setting": "[2]", "value": 30, "unit": "fold"}]}
